Test results taken from FireProtDB (doi:10.1021/bi015547k).

B1: Steroid Delta-isomerase, P07445 (parent)
chain: MNLPTAQEVQGLMARYIELVDVGDIEAIVQMYADDATVEDPFGQPPIHGREQIAAFYRQGLGGGKVRACLTGPVRASHNGCGAMPFRVEMVWNGQPCALDVIDVMRFDEHGRIQTMQAYWSEVNLSVREPQ

Variants of: B1
Conditions: Pseudomonas putida; pH 7; 25 °C; Urea; CD; potassium phosphate 20 mM; reversible: yes; structure 1OH0; whole UniProt chain shown

Y57S
ddG of mutation (higher = less stable): 9.5 kcal/mol | denaturant m value: 3.43 kcal/mol/M | denaturant midpoint (higher = more stable): 2.41 M | unfolding free energy: 14.8 kcal/mol

Y16S
denaturant m value: 2.93 kcal/mol/M | denaturant midpoint (higher = more stable): 1.99 M | unfolding free energy: 12.4 kcal/mol

Y32S
denaturant m value: 2.55 kcal/mol/M | denaturant midpoint (higher = more stable): 1.56 M | unfolding free energy: 10.6 kcal/mol
